Experiment: label from the status in PepcDB records

Row | Sequence | protein production
1 | MQRVEEVFARREPELAPMAEPAPQPQVRQEPLPEVDQAYIHNYVETSGQQDIRADFRDDAGAVAEVFDVHSRQPRAAEPVVYQQAAPQVAPQLAWEEPQAIEPSQPEWHAMPELPADVSSNISSDAHAYAPEPQAFDLADEVEIAVAEAAPAPVSVRPPAHGGRSSLEFSSLRLPLANFGARRDVSAVDPRRVEPRSELYPAASRIEPQVEPAPAVVQAEETAPSFAQPVAEVFTPAAEPLAPAIAERPAAKNLSPMDELIYGVAQYSIPERGEAQPVKTEPVAQAAKVEPPAVAAAPAKAAPVAAAVPASPIEEPDFTDFTGFNDDDFELALDDLDLDLDLSEIAEAEVAPAPQPVRPQPATPIAAVAPQPVRHEPAPQPRPAPVVAAAPIAAAPVVAAPVQPRPVAAQPAVPQTLESLPFDPSQIGETEEHPETIIEMDVPELPVGVFEPKPAARRHEEDLDIDTELATLFAPAVAGGLDRHKHAENRGAAQARPAPAPEEADEFERALEEDFRRSMQEAAASRGNAPRDAETYVDHQAAYRDEDERGGRRWIMPVAAAIGLVLIGGGVYALISGGSSGTGSNGAPVIISADNDPMKVVPENPGGRVVPNQDKAVYDRVAGGAAADPKQPALISSNEKPVDVVQRTLIPEQLPLEGENDADMEAAGTPVGETEDPRLLSPEEKAAHNEGAGATGVSPRKVRTMIVKPDGTLVAQEVDAPAAQPPKADKVAELAAPQTAKPGEGAPAVIAASRVPVAPEQAQPQASTPAAAKPSTQSAAPLPAARPSSQPANVVATVTNQGNVRPATTAPAQAAQQQTAAATPAATSTPSAGGYYIQIASLPSQAEAQKSYQNMSAKFGSVIGGRGVDIKAAEIAGKGTFYRVRIPAGDKNEAVALCEKFRSAGGSCLVAR | failed
2 | MVGIRKRKDFFEDFGSELFDNLEEMIEALLEEMGDSVPFVYGFSIIHRPGEDPELREFGNVPEYPQQEENFFPSETKEPLIDIFENENMVHVLAEFPEIEKEDILLHATGQHLEIKVLGLSEYTEDVDLPVRVDPKSAKASYKNGVLEVTFRRCSEESPVEIEINLEHHHHHH | not failed
3 | MSLSRPLLFALTALSLTAASLAHAADKKAADKPAPSAVSKADKALHDKFLTLDTHLDTPAHFGRPGWDIADHHEVEHDFSQVDLPRMNQGGLDGGFFVVYIGQGELTEKGYTYARDYALHRTIEIREMLAANPDTFEMALTSDDARRIAKAGKKFAFVSMENSWPVGEDLSLVETFYKEGLRMAGPVHFRNNQLADSSTDPKGKIWNGYSPLGLRWLAEANRLGIVIDVSHASDDVVDQSVALSKAPIIASHSGPKAVYDHPRNLDDARLKKIADAGGAICINSIYLTDTTPSPERKAALEALGRAPDMKTATPEAVKAYADKRAAIDKAHPAARGDFDLYMKSMLHVLKVAGPKGVCVGADWDGGGGMDGFEDITDLPKITARLKAEGYSDADIEAIWSGNVLRIVDAAQAYAKSVTKEGHHHHHH | not failed
4 | MPGSIPLIGERFPEMEVTTDHGVIKLPDHYVSQGKWFVLFSHPADFTPVCTTEFVSFARRYEDFQRLGVDLIGLSVDSVFSHIKWKEWIERHIGVRIPFPIIADPQGTVARRLGLLHAESATHTVRGVFIVDARGVIRTMLYYPMELGRLVDEILRIVKALKLGDSLKRAVPADWPNNEIIGEGLIVPPPTTEDQARARMESGQYRCLDWWFCWDTPASRDDVEEARRYLRRAAEKPAKLLYEEARTHLH | not failed
5 | MTWQQFKQQYLVRFWAPMPAVIAAGILSTYYFGLTGTFWAVTGEFTRWGGHLLQLVGANPETWGYFKVIGLQGSPLDRIDGMMIIGMFGGCIAAALWANNVKLRMPQSRIRIAQALIGGIIAGFGARLAMGCNLAAFFTGIPQFSLHAWFFALATAAGSYFGARFTLLPMFRIPVKLKKVDKASSVKQDENQARLRFRIGMLVFAAIIGWGLLTMFNAPKLGIAMLCGVGFGLLIERAQICFTSAFRDMWITGRTHMAKAIILGMAVSAIGIYSYVQLGVPPKIMWAGPNAVIGGLLFGFGIVLAGGCETGWMYRAVEGQVHFWWVGLGNVLGSTLLAYYWDDLAQPLATNWDKVNLLTSFGDKGGLLVTYLLLALSFAAMLLWEKRFFARKAKRDEQLIAEAA | failed
6 | MSSNIAVVGDRDTVTGFRLGGVREGYVVETPDEAEETIRNLIRDGFSIIIVTEKIGDELREFIEETTSSSALPMIIEIPDKTGPSERETDPLRDLIKRVIGVEMVK | failed
7 | MSRADDVANLFQRFGASSDGYLETDNSLDYQESSVSSTPSVALQRATSQPSIEQPCAEQSAQNNAPAPDSITPDKTRRIAADTLAKLLAEAVQAREAEAQARNNEALAQSMGKEQLSRTPAHVIAVVSAKGGVGKSTLSAALTSLVKVPGGQTLAIDLDPQDALQHHLNASPDVAGLGGASLSGENWRALLLNGSADADTQLLAYGSLQLDERRSLERFQESDAHWLVRQIARMQLSARDVVILDVPCGDLLMLEQALNAASQVLVVLTADAACYLTLDQMQGWLEPVLAGPQPPVCHYVINQFDASRTFSRDMRDVMAKRLGGRLLGIVHKDNALAEALAYGHNAVQVPSASPGTQDLRVLSHLLITKLLTQDVEETRLS | failed
8 | MAGTDFEPDVKVRSREYRIGCVGAGMIMAECHLAAYAQAGFPVVAIASRTKASAEKVARRWDIPIVHDTPEQLIEDSKVEIVDLAFPPDQQPALIRHALKQPHIKAILAQKPLALTVEEAIKLRDEAAKSGKILSVNQNMRYDQSMRVLKQIIDSGALGDIVFAQIDMHAIPHWQAFLADYDRLTLANMSVHHLDVLRFLFGDPHEITTLTRKDPRTTFDHSDGITVSTLRFPSGVLAVSLEDVWSGPREQGYRDDQHINWRVDGTKGVAKGTIGWPTGVASTLTYASTQTTGGEWVTPSWDTMWFPHAFIGVMEQLQYAVKTGTPPALSVADNVKTMALVEAGYRSMAEGRTVRLSEISTN | failed
9 | MADHSLQRRLAAIVVADVVGYSRLMEADEAATLANLRELRSGVIEPAVMRHHGRIFKVMGDGFLIEFGSAVEAVAAALEMQRAATAVEASGDRRLLLRVGVNLGDVIDDGSDVLGDDVNVAARLQTQAAPGGICISANVHGEIDGKISDRFFDAGERYLKNLTRPVHVWHWPDALQSILPLPECPSIAVLPFTNMSGDEADAPFVDGLTEDLITDLSRTAGLFVIARNSVYVYKGKPVDVRLVAQELGVRYVLEGSARRAMGRVRINAQLVDTLAGQHLWADRFDRTVEDVFELQDEVNAKIVEALVGRLTIPTPRNRPKNFEAYDLCVRARLLTEESPQTEREAYMLLQRAVELEPSYAEALGLLAYNRWLAWTHFGEPEDPNRRMAATFAQKAVDLDPNDAGCRYVLGTILAYERRWEESEAAFAKALELDPNHADTWAAMSDMSVLDGRVADGLAQIEKALRLNPYPACWYLCHLGQAQYAARDYEAAAATLRRKDTYRTNSRKFLAATLAQLGHREEARRESELFLIAHPHFTIGHWLSSQPLRDASVRDHFVDGFRKAGLPEM | failed
10 | MLISHSDLNQQLKSAGIGFNATELHGFLSGLLCGGLKDQSWLPLLYQFSNDNHAYPTGLVQPVTELYEQISQTLSDVEGFTFELGLTEDENVFTQADSLSDWANQFLLGIGLAQPELAKEKGEIGEAVDDLQDICQLGYDEDDNEEELAEALEEIIEYVRTIAMLFYSHFNEGEIESKPVLH | not failed
11 | MTEITGGTLVLVGADHPVAHLDVTAFEASVTHDVMAASVAGTGLGVSTATAAGLSHLVVDAGVAQPVQGARSVRIRGERGDLRHADAMTPVQVEALLRDGQALGAEASHDGLVCLGEVGVGNTTIATALACAMTGLGPDEAVGLGAGSDTAMVERKAEIIKAALTRTHTDPNDPERLLAALGGPEFAVLAGVCLGAAEAGSPVVLDGLATSVAALIATKFSPGLHGWLVASQASREQVHHIVLAELGLEALMELRMRAGLEHHHHHH | failed
12 | MTGGAAAAPPGRGAAFSWCLFDFANSGYPTVVATFVFSAYVTKAVAATPEAGTAAWGYAMGASGLLIALLAPIFGAVADHSGRRKPWLGLFSLLCVASTALMWTIRPDPAFLLAALVLAALSNAAFEIGGVFYNAMLPDVTTPERMGRLSGWAWGLGYAGGLACLVIALLALVQADPPPFGLDKAAAEPVRATLVLVALWFVVFGWPLFAFVPERPTGRVLALGAAARGAIDSLKGLPALFRGDPRLGWFLLARMLYTEGLNTLFAFGGIYAAGTFDMGFDQIIVFGIGLNITAGLGAFAFGWIDDWLGSPRTIVVGLIGLIGFCVAVLLVEDTAWFVGLALTMGIFFGPVQAASRTHIARVAPPDRRGELFGLFALTGKISAFAGPLAVGLATDLSGSQRLGMATVVVFLVAGLGLLVKTRAPRG | failed
13 | MSNLPFHQFCGTEGYVASRALQDVVNVAIALERPLLLKGEPGTGKTLLAYHIAKALGMEIILWNVKSTTKARDGLYTYDTVQRLNDARFGDGDVRDIRHYIKLGPLGRAFGSAERVVLLIDEVDKADIEFPNDLLFELDEMRFHVLETDEWVSAAHRPVVIVTSNSEKELPDAFLRRCVFHYIDFPDETQMRAIIDVHFPDLPAELMRSACKVFYGLREVPGLRKRPSTSELLDWIRVLLASGARLPEEETPALQSVPFLGALVKIQEDADILAHHASRSADVRTAGRRFFRLEHHHHHH | failed
14 | DGAVQYYDGAVTEITEQKRQEQQLRQSRERWRRLVEKLQDGLHIAVDGDIRYINPAGAEILGADAPDDVIGHSLWDFVALEQAQQEIFEDRLRKIYRERTSTAPQEMEITGLNGERRVIESYTVPIKFDGEQAGQTVFRDITEQKEMEQALREREARLRSITENVS | failed
15 | SLDVQRVGKAGLHRVDSKKQQTAAGVSFSEVMGKQRDEKAYERLQALMSKIDDQGKLLSETRTIEELRKYKELVKEFVGDAVELGLRLEERRGFNRRGRTKIYKIVKEVDRKLLDLTDAVLAKEKKGLDILNMVGEIKGLLINIYA | not failed
16 | MFSLREYRNKADRLADFLPWAALVAPGVVLNKDGSFQRSARFRGPDLDSATPAELIATTARLNSALRRLGSGWAIFVEAVRRPAHDYPESDFPDAASALVERERAAQFAEEGAHFESAYYLTLVWMPPAEDAARAESWLYEGKAHQGVQARELLELFSDRTDRLLRLIEGFVPEAAWLDDSETLTYLHSCISTRNHRVRVPETPMHLDALLADEPLTGGLEPRLGRAHLRTLTVVGFPSATFPGILDELNSQGFAYRWSTRAIMLDKTDAAKLLGKIRRQWFAKRKSVAAILKEVMTNEASALLDSDASNKAADADAALQELGSDLQGMAYVTATVTVWDEDAAMAAEKLRLVEKVIQGRDFTVIVEGMNALEAWLGSLPGHVYANVRQPPISTLNLAHMIPLSAVWAGPEWDAHFRAPPLFYARTEGSTPFRFALHVGDVGHTLIVGPTGAGKSVLLALMALQFRRYDRAQIFAFDFGGSIRAAALACGGDWQDLGTSLAGDGAGAVMLQPLARIDEPAERNWAAEWLQAVLTGEGVTVDPATKEHLWSALTSLSTALVAERTLTGLAVLLQSQALKQALAPYCIGGPFGRLLDAEAEQLGAGKFQAFETEGLTGSAAAPAVLSYLFHRIEGRLDGSPTLIIIDEGWLVLDSPAFAAQLREWLKTLRKKNASVVFATQSLADIETSAIAPAIIESCPTRIFLPNERAIEPQILSVYRRFGLNDRQIEIIARAAPKRDYYCQSARGNRLFELGLGEVALAFAAASSKTDQLAISELTETHGTGGFARAWLRHRGLAWAADMLPPDPVPPTRSDQAAGQPKE | failed
17 | MTDESSVRTPKALPDGVSQATVGVRGGMLRSGFEETAEAMYLTSGYVYGSAAVAEKSFAGELDHYVYSRYGNPTVSVFEERLRLIEGAPAAFATASGMAAVFTSLGALLGAGDRLVAARSLFGSCFVVCSEILPRWGVQTVFVDGDDLSQWERALSVPTQAVFFETPSNPMQSLVDIAAVTELAHAAGAKVVLDNVFATPLLQQGFPLGVDVVVYSGTKHIDGQGRVLGGAILGDREYIDGPVQKLMRHTGPAMSAFNAWVLLKGLETLAIRVQHSNASAQRIAEFLNGHPSVRWVRYPYLPSHPQYDLAKRQMSGGGTVVTFALDCPEDVAKQRAFEVLDKMRLIDISNNLGDAKSLVTHPATTTHRAMGPEGRAAIGLGDGVVRISVGLEDTDDLIADIDRALS | not failed
